According to the DeepSol protein solubility set:

Assay: soluble on expression in E. coli; label from the status in PepcDB or PDB records

| Sequence | soluble on expression in E. coli |
| --- | --- |
| MDTEKLRRQLIDRITDNYSEYRASLLLKDRQELIDGAGRIADTATVFQHLADRSYKPEELEYLLKFQNPLEVVTEHWADYELMPDVLDALIADTVDRQDDLTLFPLATDAPAQKPESLRKFLNVDLETVLPQIMKQKTAFYQTDLNYALDAMREGATSGDPAKQNFVLIFRQSGVECLNERDMFIGGTRSFNTLQFYHTQTREPVLTYSVELTGDGKDGLRGNLYQQDNHRLAEYAGRTASPYTDVTVTFTGGKEVRLPEKEFYYEKAASLKYLHGSIKEVRNEAEDETVVQGAVKREHDRRREMPRGYFAVHLQALDEQRIQAEADRLSSALTDLKQPNSPDKEKFMVEISVYFLPLASQHDMNRLFEKVRDQVGQTVYITPPDDTHKRYFVMRREERAQEQPERKPSIKAQLSAKPVPGDKPATKTKDREVR | not soluble |
| MKIKACIFDMDGTLVNSIMDIAFSMNSALSNLGYSKIELSKFNALVGRGFNKFVIDTLKLLSLEHDNPNLQEKLYKEFVKEYNKNLSFQTKPYENIKPLLETMNKLNIPIGILSNKNHEELINLVKNIFGNILFFEIRGYSKNFPPKPDPENALDMILELNAQKEEIAYIGDSDVDMLTALNAGFMPIGVSWGFRSVQELKESGAKHIIHNPLELLDLIK | not soluble |
| MGSDKIHHHHHHMLSHRLQDTSLRYFLEVVRTGSLTEAAQRLNVTVSAVSRQVAALESWLGVPLFDRRPRGMVASAAGELLAAYALRNALEADRVVTEIDALQGLRRGRVRVASSAGFAIEFLPRAIADFRERYPGLHFHVRVAPPAEVTGIVLHGDADIGITYSRAAEQGIRVEHRQAAPVIAIMRPDHALARFRSITLSQMLPYPLALPEGDNTVRQLFDIACGERGVAFEPVLVSNQFETLTSFVLHGGGLSISGGVTVGDRLRRGELHAATIRERGMKSRAIELQTLAGRTLPEGVRTFLGFVRDRLVEEAGIGS | not soluble |
| MGSDKIHHHHHHMDIRQLKTFIAIAEHGTFAKAADAVGLTPSAVSQQIQALESEVRGELFDRATRPIMLNGHGLQMLEAARTLVRDADNIIDAISGRAVSGTFTIGSVRSSALSLLPLSIVALKADYPDLRIKLQVANTDELLKDVMSGRLDCAMVAEYSGIPSALRWQPFINEPLLVIGPNGTPKMSGFDMLSKLPYVRFNSKFRLAQIIETELAKTRIVPNLIAEIDTIASVVSCVIHGLGVSVVPWIALRDIAAPIVAVQFGEPQILRPIGLLERRSGTRAQIIDRLHQNLARLSDPYGIPR | not soluble |
| MRLPCEVVFARYKANAGVNPKPTKSQKGFVILQKLRQTPPQYQITVAVAGDKTGNKFELNKPPIILDKFIAQGKTTITFQTTPAVMVCISKANPEALAQLIEAIRKIVKGENVDIEKVKVKSSDFKPTTITVNNQATYKKQMQSCSEFLKTLKIEPIDLRRPDKAWRFCHNLTRLTLNGNPIGAHNRDLDVFSKLKQLQSLEMRSCSLELIPVPAMCTMFRELPTSISLLDFGDNHLSIFPPIFHLKQLKIINAAHNAIKYLPSRIGVLQNLNTIDVSNNLMTALPYVFSKIPSIEHVGINANDQMVRLEEEIGPIFIRRLLTKVDNIEYTHEGGVDKLGTIAANAIHREECSKSMKFGRQFLPLSLRFDMDDLMFEKPGISSLELCTGCVRLRHIRYIRPLIIQSRQIANSVDVIGRFVTFDRLLCIDCYRRTTSTNNGEPPFQCDYFQFAV | not soluble |
| GPGSMNPSAAAYIPQQSDAKGDPKSSSAAAVAKPPSTQPATKLSAAAEPFVPGGPKQMSATSTHVDPKATTEDEKTTAPLLMECPASSLPDSAAAAGAAKKEADENDDSQLDWLPEAQPTDWSESKLPKLFGCHNTAAKATSSAIPLHASWDLYADDHQGSSNMASNSSPTSTMSFEPIFVSNVGDVESFWRLWRYLPAPSALPTVYTYSWFRKDIKPEWEHPRNKKGGTISIVVFDRDRSGLSDKQVLDDVFMAMLVGAVGESFHECSTTLNGIMLKVRSNKPVTLQLWTAHSEVGKLKAFANSVRDTLTKIMGAKTLQKLEYYSHHQKQAATNSLAARMKGKTKISPDHTF | soluble |
| MTGMSERERQVMKKLKEVVDKQRDEIRAKDRELGLKNEDVEALQQQQTRLMKINHDLRHRVTVVEAQGKALIEQKVELEADLQTKEQEMGSLRAELGKLRERLQGEHSQNGEEEPETEPVGEESISDAEKVAMDLKDPNRPRFTLQELRDVLHERNELKSKVFLLQEELAYYKSEEMEEENRIPQPPPIAHPRTSPQPESGIKRLFSFFSRDKKRLANTQRNVHIQESFGQWANTHRDDGYTEQGQEALQHL | not soluble |
| MTPEALSFWTQADKPFLFLAACIELTNALAYGPGYVCGLPCSWDGSCSGAQHLCAATRSEDAWKVNLIGNDEVHDLYTIVGNAAKQSMARDTDPMVSTILAYEGDWRKVFKRNTMTTFYGSKGFGMAQQHMDDLMEPLSREVMQKKRAKHPFGQTRKEHHAASRLLAAHAAAAIKGEIPLAIKAMEFIQKLSAMMAHEGKPLEWTTPIGLPWSNRYHDPVTERVNLWMHDHGVRRPFRPVVADGYKKTINKNHSVNGSAPNFVHACDAAHLLRTVNAARAEGITQFALVHDSFGSLPSHAARFRQIIREEFVRMYEEHDVLTEVLEQAKCDLDEHNDKLSALVDMRADLTGKLNIKEVLNAEYAFAYPKLSEPDTKGEYADGKYKTEGTATEDYTERFQEEIQKVADDNFPGKKNVHLPWKETKEGDIAFIFKNPKKKPILTDSRGKPLKEGTVIRGGSKIRIAGVIAAWEKGAKRGVSLWPDAVRVIKLSEGFDANAAFGAAEDGFNADDYEPTNFGNDGEDADNDADDAEAGDDAFKLLEHHHHHH | not soluble |
| MGSDKIHHHHHHMFRRHGIIAFSSNYELYADMSNRVMTTLEELSPRCEIYSIDEAFCDLTGVRNCRDLTDFGREIRETVLRRTHLTIGVGIAQTKTLAKLANHAAKQWQRQTGGVVDLSNLERQRKLMALLPVDEVWGVGRRISKKLEAMGIKTVLQLADTDIRFIRKHFNVVLERTVRELRGEPCLGLEEFAPVKQEIVCSRSFGGRITEYHEMRQAICSYASRAAEKLRGEHQYCRFISAFVKTSPFALNEPYYGNSASVKLLTPTQDSRDIITAATKCLDAIWRDGHRYQKAGVMLGDFYSQGVAQLNLFDDNAPRKGSEKLMEVLDHLNAKGGRGTLYFAGQGIQTAWQMKREMLSPRYTTRFCDLLKVR | not soluble |
| MGSDKIHHHHHHMELHIRLEGRKGLADQLYQQLRDGIDSGHLAAGSQLPPTRLLAEQLGVSRKTVAEAYSRLTYDNLLSGVVGRGTFVTPRHPLRSNESATLPLAGAASLERWQQRATVLSQRQLQAPSRYDFVGGASSKAQFPFDQWRSCLNYALRRSQRHPERQFPAQGLPELREAIAHHIAYSRGVHCSAADLLVCNGAQQALDLIARVLVEPGCQVAMEDPGYPPARQLFLALGARLQSVPVDDEGLCVEQIADGTRLIYVTPSHQFPLGMPMSEPRRHALLARAAELGALIIEDDYDCEFRYHGPASDALQRLDRHGLVAYVGTFSKTLLPELRLGYAVLPPAVLQAACVAKHLSDWHSPTLLQWALARFLGEGHLNKHIRRCHEVYSARRERILARLGGDLAPWFSAIPASAGFHLSALATPGVDVELLANLARKVEVGLYSLAPFFSEAPVRPGLLMGFGAIELLDIDPALDRVRDTLQRLS | not soluble |
| MNVTTPEVAFREYQTNCLASYISADPDITPSNLILQGYSGTGKTYTLKKYFNANPNLHAVWLEPVELVSWKPLLQAIARTVQYKLKTLYPNIPTTDYDPLQVEEPFLLVKTLHNIFVQYESLQEKTCLFLILDGFDSLQDLDAALFNKYIKLNELLPKDSKINIKFIYTMLETSFLQRYSTHCIPTVMFPRYNVDEVSTILVMSRCGELMEDSCLRKRIIEEQITDCTDDQFQNVAANFIHLIVQAFHSYTGNDIFALNDLIDFKWPKYVSRITKENIFEPLALYKSAIKLFLSTDDNLSENGQGESAITTNRDDLENSQTYDLSIISKYLLIASYICSYLEPRYDASIFSRKTRIIQGRAAYGRRKKKEVNPRYLQPSLFAIERLLAIFQAIFPIQGKAESGSLSALREESLMKANIEVFQNLSELHTLKLIATTMNKNIDYLSPKVRWKVNVPWEIIKEISESVHFNISDYFSDIHE | soluble |
